The values that follow come from US20240124565A1 (DIADEM S R L, published 2024).

Where no end group is shown, it is not given here.

The test deals with T1, peptide CRTEEENLRKKGEPHH (SEQ ID NO: 2) conjugated with BSA (human, also: conjugated with BSA by the glutaraldehyde method).
T1 construct: 16-residue immunogen derived from human p53 282-297, with Cys in place of the first Arg; ELISA plates were coated with 'the antigen'; also called the antigen; peptide used as antigen
T1 peptide: CRTEEENLRKKGEPHH
As to the kind of experiment: ELISA, plate coated with the antigen, hybridoma supernatant dilutions. As for the experimental part: The animals' splenocytes were fused with mouse myeloma cells (SP2/O cell line). The fusion products were subjected to screening against the antigen to select the antibody-producing clones. The growth of these clones was continued. This first screening was performed by ELISA methodology. The positive clones were labeled as “parental clones” and frozen after 3 passages. An antigen coating was created onto ELISA plates, and successively the fusion product supernatant was added. The serum of the immunized animals was used as a positive control in ELISA (Example 2).
After the fusion between the splenocytes of the mouse with the best antibody titer and mouse myeloma cells, an ELISA assay was performed to evaluate the fusion products. A coating with the antigen was created in a 96-well ELISA plate and serial dilutions of the supernatant from various clones were added to each well to evaluate their antibody production by spectrophotometric reading. The clones with the highest optical density at 450 nm (OD₄₅₀ₙₘ) were transferred to 24-well plates and after their growth the ELISA assay was repeated, the clones with the highest antibody production were transferred to 6-well plates, grown and tested again by ELISA. The procedure was repeated also for the clones transferred to culture flasks.

B1: 2D3A8 antibody (antibody)
heavy: EVQLQQSGPELVKPGASVKMSCKASGYTFTSYVMHWVKQKPGQGLEWIGYINPYNDGTKYNEKFKGKATLTSDKSSSTAYMELSSLTSEDSAVYYCARGGYYAMDYWGQGTSVTVSSESQSFPNVFPLVSCESPLSDKNLVAMGCLARDFLPSTISFTWNYQNNTEVIQGIRTFPTLRTGGKYLATSQVLLSPKSILEGSDEYLVCKIHYGGKNRDLHVPIPAVAEMNPNVNVFVPPRDGFSGPAPRKSKLICEATNFTPKPITVSWLKDGKLVESGFTTDPVTIENKGSTPQTYKVISTLTISEIDWLNLNVYTCRVDHRGLTFLKNVSSTCAASPSTDILTFTIPPSFADIFLSKSANLTCLVSNLATYETLNISWASQSGEPLETKIKIMESHPNGTFSAKGVASVCVEDWNNRKEFVCTVTHRDLPSPQKKFISKPNEVHKHPPAVYLLPPAREQLNLRESATVTCLVKGFSPADISVQWLQRGQLLPQEKYVTSAPMPEPGAPGFYFTHSILTVTEEEWNSGETYTCVVGHEALPHLVTERTVDKSTGKPTLYNVSLIMSDTGGTCY
light: DIQMTQTTSSLSASLGDRVTISCRASQDISNYLNWYQQKPDGTVKLLIYYTSRLHSGVPSRFSGSGSGTDYSLTISNLEQEDIATYFCQQGNTLPYTFGGGTKLEIKRADAAPTVSIFPPSSEQLTSGGASVVCFLNNFYPKDINVKWKIDGSERQNGVLNSWTDQDSKDSTYSMSSTLTLTKDEYERHNSYTCEATHKTSTSPIVKSFNRNEC
notes: Mouse monoclonal from a hybridoma, purified from the clone's supernatant; also called clone 2D3A8
Regarding B1, the binding result is listed as “binds”.
